Source: patent US7985736B2, “High throughput screen utilizing newly discovered intramolecular neuronal calcium channel interactions to discover new analgesics” (The John Hopkins University, priority 2004, dated 2011)

Assays:
[1] = biological target: T1, Gβ1 (Bos taurus, UniProt P62871); test: Yeast two-hybrid assay, channel fragments versus Gβ1; assay type: binding; details: Gβ1 in pGADT7, channel fragment in pGBKT7
T1 construct: expressed in transfected cells; host or cells: AH109 yeast
Text: For yeast two-hybrid assays, a PCR fragment encoding one partner was fused, in-frame, with the GAL4 DNA binding domain (BD) in pGBKT7 (Clontech, Palo Alto, Calif.). The other element was fused, in-frame, with the GAL4 activation domain (AD) in pGADT7. For specific residues, see Supplemental Data (section 2). For electrophysiology, NT peptides lacking fluorophore tag were PCR amplified and cloned in pcDNA3. NTB peptide residues, 1-95; NTC residues, […]. Throughout, all segments subject to PCR or QuikChange were verified in their entirety by sequencing.
The Matchmaker GAL4 Two-Hybrid System 3 was used (Clontech, Palo Alto, Calif.). AH109 yeast were transformed with pGBKT7/pGADT7-based constructs (Yeastmaker Yeast Transformation System 2 kit, Clontech). After 5-8 days, growth on -leucine/-trytophan plates confirmed transformation of both plasmids. If partners interact, GAL4 BD/AD would complex, activating reporter genes (HIS3, ADE2, lacZ, and MEL1), for which assays are detailed in the Supplemental Data (section 2.1).
As a ‘medium’ stringency assay, expression of the lacZ gene was tested for encoding β-galactosidase, performing a filter lift with application of blue chromogenic substrate (Clontech-Laboratories, 1999). After the filter lift, original plates were re-grown for 2-3 days at 30° C. Filter paper was then used to replicate colonies onto a high stringency plate (-adenine/-histidine/-leucine/-trytophan). These plates were then incubated at 30° C. for 5-8 days. Survival on high stringency plates indicates production of both adenine and histidine, from transcription of the ADE2 and HIS3 genes, respectively. The percentage of colonies that turned blue in the filter lift assay, along with the percentage of colonies that survived on high stringency plates, was recorded for each pairing. Experiments were repeated at least three times. False positives were controlled for by testing each segment in pGBKT7 against empty pGADT7, and each segment in pGADT7 against lamin C in pGBKT7 (lamin C interacts with few proteins). […]

[2] = biological target: T2, I-IIB-YFP (Homo sapiens, UniProt Q00975); test: Live-cell FRET two-hybrid assay versus I-IIB-YFP in HEK293 cells; assay type: binding
T2 construct: I-IIB residues, 357-482; expressed in transfected cells; host or cells: HEK293
T2 sequence (Q00975 357-482): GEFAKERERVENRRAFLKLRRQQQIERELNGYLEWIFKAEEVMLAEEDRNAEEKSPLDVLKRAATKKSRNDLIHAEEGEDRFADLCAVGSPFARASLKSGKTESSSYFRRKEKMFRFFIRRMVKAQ
Text: To confirm preferential interaction of NTB with I-IIB a live-cell FRET two-hybrid assay was used (Erickson et al., 2003), in which NTB, NTC, I-IIB, and I-IIC were fused to either CFP or YFP, and the resulting fusion constructs expressed pair-wise in mammalian HEK293 cells. Given a Forster distance of ˜50 Å for the CFP/YFP pair (Patterson et al., 2000), the presence of FRET in individual cells would give a strong indication of interpeptide binding in the mammalian intracellular milieu. This indication is generally characterized by a low false-positive rate (Erickson et al., 2003), so that FRET assays provide a useful complement to yeast two-hybrid assays (Allen et al., 1995). […] SCFP (the signal derived from an image obtained with the CFP filter cube) is selective for CFP fluorescence and thereby gives an optical measure of NTB-CFP expression. Analogously, the SYFP signal, derived from preferential excitation and detection of YFP, estimates I-IIB-YFP levels. Finally, the SFRET signal reflects I-IIB-YFP fluorescence stimulated by FRET transfer from NTB-CFP, as well as secondary cross-talk signals. These three signals can be incorporated within a three-cube FRET algorithm to determine the strength of FRET interaction (“FRET ratio,” FR), independently of cross-talk (Erickson et al., 2001). FR adopts a value of unity in the absence of FRET and grows linearly with increasing FRET efficiency (Erickson et al., 2003). FR values for many individual cells are plotted as circles in FIG. 2Eb, with numerous determinations clearly greater than unity. Alternatively, FR values specified by a YFP-photobleaching methodology were also elevated above unity (triangles) (Bastiaens and Jovin, 1996). […] Consistent with yeast two-hybrid assays, then, FRET assays confirmed a selective propensity for NTB and I-IIB segments to associate.
Human m2 muscarinic acetylcholine receptor (AF498916) was engineered to reduce desensitization (Pals-Rylaarsdam and Hosey, 1997). QuikChange (Stratagene, La Jolla, Calif.) introduced cluster mutations, yielding m2R: residues 286-290 (STSVS/AAAVA), residues 307-311 (TVSTS/AVAAA). For FRET assays, base templates were ECFP/EYFP-tagged calmodulin constructs in pcDNA3 (Invitrogen, Carlsbad, Calif.), as described (Erickson et al., 2001). PCR-amplified channel segments or G proteins were substituted for calmodulin via upstream EcoRI and downstream NheI sites, creating in-frame fusions with fluorophore (ECFP/EYFP C-terminal to test molecules). NTC residues, 1-53; I-IIB residues, 357-482; and I-IIC residues, 436-554.
Experiments were performed mostly as previously described (Erickson et al., 2001; Erickson et al., 2003). Briefly, the FRET Ratio (FR) is the fractional increase in YFP emission due to FRET. […] For donor-dequenching analysis, EEFF is calculated as EEFF=^1−CFPpre/CFPpost, where CFPpre and CFPpost are the CFP emissions before/after 3 min YFP photobleaching. FR is determined by FR=(EEFF/[EYFP/ECFP])+1, where EYFP/ECFP is ratio of YFP and CFP molar extinction coefficients through 440 nm excitation bandpass of FRET cube (0.0574). For binding model analysis, Kd,EFF is the effective dissociation constant, related to actual Kd via filter/microscope optical characteristics. […]
Experiments were performed as described previously for the most part (Erickson et al., 2001; Erickson et al., 2003). Specifically, for quantitative analysis, all fluorescence from single cells were isolated through a pinhole in the image plane, and detected by photo-multiplier tube. In all three-cube FRET experiments, CFP levels were below a threshold where spurious, concentration-dependent FRET became significant (Stratton et al., 2004). Similarly, for donor-dequenching experiments, YFP levels were below an analogous threshold. […]

[3] = biological target: T3, I-IIC (Oryctolagus cuniculus, UniProt P15381); test: Live-cell FRET two-hybrid assay versus I-IIC in HEK293 cells; assay type: binding, rabbit; details: compared with NTB/I-IIB pair
T3 construct: I-IIC residues, 436-554; expressed in transfected cells; host or cells: HEK293
T3 sequence (P15381 436-554): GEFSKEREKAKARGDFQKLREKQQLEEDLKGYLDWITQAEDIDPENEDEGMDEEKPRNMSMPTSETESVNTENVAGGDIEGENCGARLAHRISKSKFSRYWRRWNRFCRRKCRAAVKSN
Text: To confirm preferential interaction of NTB with I-IIB a live-cell FRET two-hybrid assay was used (Erickson et al., 2003), in which NTB, NTC, I-IIB, and I-IIC were fused to either CFP or YFP, and the resulting fusion constructs expressed pair-wise in mammalian HEK293 cells. Given a Forster distance of ˜50 Å for the CFP/YFP pair (Patterson et al., 2000), the presence of FRET in individual cells would give a strong indication of interpeptide binding in the mammalian intracellular milieu. This indication is generally characterized by a low false-positive rate (Erickson et al., 2003), so that FRET assays provide a useful complement to yeast two-hybrid assays (Allen et al., 1995). […] SCFP (the signal derived from an image obtained with the CFP filter cube) is selective for CFP fluorescence and thereby gives an optical measure of NTB-CFP expression. Analogously, the SYFP signal, derived from preferential excitation and detection of YFP, estimates I-IIB-YFP levels. Finally, the SFRET signal reflects I-IIB-YFP fluorescence stimulated by FRET transfer from NTB-CFP, as well as secondary cross-talk signals. […]
Experiments were performed mostly as previously described (Erickson et al., 2001; Erickson et al., 2003). […] For donor-dequenching analysis, EEFF is calculated as EEFF=^1−CFPpre/CFPpost, where CFPpre and CFPpost are the CFP emissions before/after 3 min YFP photobleaching. […]

T1 sequence (P62871 whole entry, the tested form may be a part): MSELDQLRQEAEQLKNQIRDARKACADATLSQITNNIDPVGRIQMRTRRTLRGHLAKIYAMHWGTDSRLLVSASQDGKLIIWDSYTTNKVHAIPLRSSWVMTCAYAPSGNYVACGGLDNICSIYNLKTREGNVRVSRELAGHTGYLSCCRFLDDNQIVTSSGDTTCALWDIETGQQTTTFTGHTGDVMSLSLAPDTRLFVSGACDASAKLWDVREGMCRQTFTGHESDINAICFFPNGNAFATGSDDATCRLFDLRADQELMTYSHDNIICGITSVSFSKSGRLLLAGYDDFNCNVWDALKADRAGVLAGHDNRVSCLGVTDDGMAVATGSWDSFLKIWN

Molecule	Interaction with Gβ1 (yeast two-hybrid) [1]	Kd,EFF relative to NTB/I-IIB ([2]; NTC-CFP versus I-IIB-YFP, lower-limit estimate) [fold]	Kd,EFF / affinity for I-IIB (FRET), in words ([2]; relative dissociation constant, HEK293 cells)	Kd,EFF for I-IIC (FRET), in words [3]
NTC: NH3 terminus of L-type channel α1C subunit, free peptide [reference compound]	interact	≥ 8	larger by an order of magnitude or more	larger by an order of magnitude or more
NTB: NH3 terminus of N-type channel α1B subunit, residues 1-95, expressed as free peptide (SEQ ID NO.: 1) (protein, listed as Homo sapiens) MVRFGDELGGRYGGPGGGERARGGGAGGAGGPGPGGLQPGQRVLYKQSIAQRARTMALYNPIPVKQNCFTVNRSLFVFSEDNVVRKYAKRITEWP	interact			larger by an order of magnitude or more
